Series [1] deals with HeLa Kyoto. Put plainly: solubility in G1/S (NP-40 vs SDS abundance) (log2 ratio); higher = more soluble. The settings on record: cell cycle stage: G1/S.
Series [2] has as its system HeLa Kyoto. Put plainly: solubility change mitosis vs G1/S (difference of NP-40 vs SDS log2 ratios) (log2 ratio difference); higher = more soluble in mitosis.
The subject of series [3] is HeLa Kyoto. Put plainly: melting temperature (median over replicates), in situ; higher = more thermally stable.
In series [4] the test system is HeLa Kyoto. As to the kind of experiment: thermal stability score vs G1/S (z-score of summed log2 fold changes over temperatures); higher = more thermally stable than in G1/S.
[5] abbreviates: cell cycle stage: early G1 (4.5 h after nocodazole release).

The results in this text go back to the supplement of paper PMC5998384.
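For melting temperature (median over replicates), in situ in this document: HeLa Kyoto cells synchronized by double thymidine or nocodazole block, proteins quantified by TMT10plex mass spectrometry, three independent biological replicates.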
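For solubility change mitosis vs G1/S (difference of NP-40 vs SDS log2 ratios) in this document: synchronized HeLa Kyoto cells (double thymidine block for G1/S, nocodazole release for mitosis), protein amounts in NP-40 versus SDS lysates quantified by mass spectrometry, three biological replicates.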
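For solubility in G1/S (NP-40 vs SDS abundance) in this document: HeLa Kyoto cells arrested at G1/S by double thymidine block, proteins quantified by TMT10plex mass spectrometry in mild NP-40 versus SDS extracts, three biological replicates.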
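For thermal stability score vs G1/S (z-score of summed log2 fold changes over temperatures) in this document: synchronized HeLa Kyoto cells, proteins quantified by TMT10plex mass spectrometry, three biological replicates, mitosis taken 0.5 h after nocodazole release, G1/S directly after double thymidine block.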

In the case of “MSINLTVDIYIYLLSNARSVCGKQRSKQLYFLFSPKHYWRISHISLQRGFHTNIIRCKWTKSEAHSCSKHCYSPSNHGLHIGILKLSTSAPKGLTKVNICMSRIKSTLNSVSKAVFGNQNEMISRLAQFKPSSQILRKVSDSGWLKQKNIKQAIKSLKKYSDKSAEKSPFPEEKSHIIDKEEDIGKRSLFHYTSSITTKFGDSFYFLSNHINSYFKRKEKMSQQKENEHFRDKSELEDKKVEEGKLRSPDPGILAYKPGSESVHTVDKPTSPSAIPDVLQVSTKQSIANFLSRPTEGVQALVGGYIGGLVPKLKYDSKSQSEEQEEPAKTDQAVSKDRNAEEKKRLSLQREKIIARVSIDNRTRALVQALRRTTDPKLCITRVEELTFHLLEFPEGKGVAVKERIIPYLLRLRQIKDETLQAAVREILALIGYVDPVKGRGIRILSIDGGGTRGVVALQTLRKLVELTQKPVHQLFDYICGVSTGAILAFMLGLFHMPLDECEELYRKLGSDVFSQNVIVGTVKMSWSHAFYDSQTWENILKDRMGSALMIETARNPTCPKVAAVSTIVNRGITPKAFVFRNYGHFPGINSHYLGGCQYKMWQAIRASSAAPGYFAEYALGNDLHQDGGLLLNNPSALAMHECKCLWPDVPLECIVSLGTGRYESDVRNTVTYTSLKTKLSNVINSATDTEEVHIMLDGLLPPDTYFRFNPVMCENIPLDESRNEKLDQLQLEGLKYIERNEQKMKKVAKILSQEKTTLQKINDWIKLKTDMYEGLPFFSKL [PNPLA8]”, the “solubility in G1/S (log2)” value in series [1] was 0.117. Also, the “solubility change mitosis (log2)” value in series [2] is -0.0941. Moreover, the melting temperature in series [3] (cell cycle stage: G1/S) stood at 53.6 °C; in series [3] (cell cycle stage: mitosis) it was 54 °C. Also, the thermal stability score in series [4] (setting [5]) is -0.78; in series [4] (cell cycle stage: mitosis) it was -0.701.
Regarding “MSISSDEVNFLVYRYLQESGFSHSAFTFGIESHISQSNINGALVPPAALISIIQKGLQYVEAEVSINEDGTLFDGRPIESLSLIDAVMPDVVQTRQQAYRDKLAQQQAAAAAAAAAAASQQGSAKNGENTANGEENGAHTIANNHTDMMEVDGDVEIPPNKAVVLRGHESEVFICAWNPVSDLLASGSGDSTARIWNLSENSTSGSTQLVLRHCIREGGQDVPSNKDVTSLDWNSEGTLLATGSYDGFARIWTKDGNLASTLGQHKGPIFALKWNKKGNFILSAGVDKTTIIWDAHTGEAKQQFPFHSAPALDVDWQSNNTFASCSTDMCIHVCKLGQDRPIKTFQGHTNEVNAIKWDPTGNLLASCSDDMTLKIWSMKQDNCVHDLQAHNKEIYTIKWSPTGPGTNNPNANLMLASASFDSTVRLWDVDRGICIHTLTKHQEPVYSVAFSPDGRYLASGSFDKCVHIWNTQTGALVHSYRGTGGIFEVCWNAAGDKVGASASDGSVCVLDLRK [TBL1XR1]”, the “solubility in G1/S (log2)” value in series [1] was -0.0567. Also, the “solubility change mitosis (log2)” value in series [2] was -0.127. Besides, the melting temperature in series [3] (cell cycle stage: G1/S) worked out at 52.2 °C; in series [3] (cell cycle stage: mitosis), 53.6 °C. Moreover, the thermal stability score is -0.718 in series [4] (setting [5]) and 1.29 in series [4] (cell cycle stage: mitosis).
As to “MSKEERPGREEILECQVMWEPDSKKNTQMDRFRAAVGAACGLALESYDDLYHWSVESYSDFWAEFWKFSGIVFSRVYDEVVDTSKGIADVPEWFKGSRLNYAENLLRHKENDRVALYIAREGKEEIVKVTFEELRQEVALFAAAMRKMGVKKGDRVVGYLPNSEHAVEAMLAAASIGAIWSSTSPDFGVNGVLDRFSQIQPKLIFSVEAVVYNGKEHNHMEKLQQVVKGLPDLKKVVVIPYVSSRENIDLSKIPNSVFLDDFLATGTSEQAPQLEFEQLPFSHPLFIMFSSGTTGAPKCMVHSAGGTLIQHLKEHLLHGNMTSSDILLCYTTVGWMMWNWMVSLLATGAAMVLYDGSPLVPTPNVLWDLVDRIGITVLVTGAKWLSVLEEKAMKPVETHSLQMLHTILSTGSPLKAQSYEYVYRCIKSSILLGSISGGTDIISCFMGHNFSLPVYKGEIQARNLGMAVEAWNEEGKAVWGESGELVCTKPIPCQPTHFWNDENGNKYRKAYFSKFPGIWAHGDYCRINPKTGGIVMLGRSDGTLNPNGVRFGSSEIYNIVESFEEVEDSLCVPQYNKYREERVILFLKMASGHAFQPDLVKRIRDAIRMGLSARHVPSLILETKGIPYTLNGKKVEVAVKQIIAGKAVEQGGAFSNPETLDLYRDIPELQGF [AACS]”, the “solubility in G1/S (log2)” value in series [1] worked out at 0.0299. In addition, the “solubility change mitosis (log2)” value in series [2] is -0.129. Moreover, the figures for the melting temperature in series [3] (cell cycle stage: G1/S) and in series [3] (cell cycle stage: mitosis) were 48.5 °C and 48 °C, respectively. For the same sequence, the thermal stability score in series [4] (setting [5]) turned out to be 0.491; in series [4] (cell cycle stage: mitosis), 1.92.
“MSKLKVIPEKSLTNNSRIVGLLAQLEKINAEPSESDTARYVTSKILHLAQSQEKTRREMTAKGSTGMEILLSTLENTKDLQTTLNILSILVELVSAGGGRRVSFLVTKGGSQILLQLLMNASKESPPHEDLMVQIHSILAKIGPKDKKFGVKARINGALNITLNLVKQNLQNHRLVLPCLQLLRVYSANSVNSVSLGKNGVVELMFKIIGPFSKKNSSLIKVALDTLAALLKSKTNARRAVDRGYVQVLLTIYVDWHRHDNRHRNMLIRKGILQSLKSVTNIKLGRKAFIDANGMKILYNTSQECLAVRTLDPLVNTSSLIMRKCFPKNRLPLPTIKSSFHFQLPVIPVTGPVAQLYSLPPEVDDVVDESDDNDDIDVEAENETENEDDLDQNFKNDDIETDINKLKPQQEPGRTIEDLKMYEHLFPELVDDFQDYDLISKEPKPFVFEGKVRGPIVVPTAGEETSGNSGNLRKVVMKENISSKGDEGEKKSTFMDLAKEDIKDNDRTLQQQPGDQNRTISSVHGLNNDIVKALDRITLQNIPSQTAPGFTAEMKKDCSLPLTVLTCAKACPHMATCGNVLFEGRTVQLGKLCCTGVETEDDEDTESNSSVEQASVEVPDGPTLHDPDLYIEIVKNTKSVPEYSEVAYPDYFGHIPPPFKEPILERPYGVQRTKIAQDIERLIHQSDIIDRVVYDLDNPNYTIPEEGDILKFNSKFESGNLRKVIQIRKNEYDLILNSDINSNHYHQWFYFEVSGMRPGVAYRFNIINCEKSNSQFNYGMQPLMYSVQEALNARPWWIRMGTDICYYKNHFSRSSVAAGGQKGKSYYTITFTVNFPHKDDVCYFAYHYPYTYSTLQMHLQKLESAHNPQQIYFRKDVLCETLSGNSCPLVTITAMPESNYYEHICHFRNRPYVFLSARVHPGETNASWVMKGTLEYLMSNNPTAQSLRESYIFKIVPMLNPDGVINGNHRCSLSGEDLNRQWQSPSPDLHPTIYHAKGLLQYLAAVKRLPLVYCDYHGHSRKKNVFMYGCSIKETVWHTNDNATSCDVVEDTGYRTLPKILSHIAPAFCMSSCSFVVEKSKESTARVVVWREIGVQRSYTMESTLCGCDQGKYKGLQIGTRELEEMGAKFCVGLLRLKRLTSPLEYNLPSSLLDFENDLIESSCKVTSPTTYVLDEDEPRFLEEVDYSAESNDELDIELAENVGDYEPSAQEEVLSDSELSRTYLP [AGTPBP1]”: in series [1], the “solubility in G1/S (log2)” value was -0.204. For the same sequence, the “solubility change mitosis (log2)” value in series [2] is -0.0731. The melting temperature in series [3] (cell cycle stage: G1/S) amounted to 50.2 °C; in series [3] (cell cycle stage: mitosis), 50.3 °C. The thermal stability score is -0.000956 in series [4] (setting [5]) and 0.14 in series [4] (cell cycle stage: mitosis).
